Measured values reported in ChEMBL document CHEMBL1134791, “2- and 3-substituted 1,4-naphthoquinone derivatives as subversive substrates of trypanothione reductase and lipoamide dehydrogenase from Trypanosoma cruzi: synthesis and correlation between redox cycling activities and in vitro cytotoxicity” (J Med Chem, 2001).

Tests used:
[1] = substrate: CC1=C(CCCCCC(=O)NCCCN2CCN(CCCNC(=O)CCCCCC3=C(C)C(=O)c4cccc(O)c4C3=O)CC2)C(=O)c2c(O)cccc2C1=O; test: Vmax is the maximum velocity of the TcTR (Trypanosoma cruzi trypanothione reductase) catalyzed NADPH oxidation.
[2] = substrate: CC1=C(CCC(=O)NCCCNCCCNC(=O)CCC2=C(C)C(=O)c3ccccc3C2=O)C(=O)c2ccccc2C1=O; test: as above
[3] = substrate: CC1=C(CCCCC(=O)NCCCCNCCCNC(=O)CCCCC2=C(C)C(=O)c3cccc(O)c3C2=O)C(=O)c2c(O)cccc2C1=O; test: as above
[4] = substrate: CC1=C(CCCC(=O)NCCCN2CCN(CCCNC(=O)CCCC3=C(C)C(=O)c4cccc(O)c4C3=O)CC2)C(=O)c2c(O)cccc2C1=O; test: as above
[5] = substrate: CC1=CC(=O)c2c(O)cccc2C1=O; test: as above
[6] = substrate: CC1=C(CCC(=O)NCCCNCCCNC(=O)CCC2=C(C)C(=O)c3cccc(O)c3C2=O)C(=O)c2c(O)cccc2C1=O; test: as above
[7] = substrate: CC1=C(CCCCC(=O)NCCCN2CCN(CCCNC(=O)CCCCC3=C(C)C(=O)c4ccccc4C3=O)CC2)C(=O)c2ccccc2C1=O; test: as above
[8] = substrate: CC1=C(CCCCCC(=O)NCCCCNCCCNC(=O)CCCCCC2=C(C)C(=O)c3ccccc3C2=O)C(=O)c2ccccc2C1=O; test: as above
[9] = substrate: CC1=C(CCCC(=O)NCCCNCCCNC(=O)CCCC2=C(C)C(=O)c3cccc(O)c3C2=O)C(=O)c2c(O)cccc2C1=O; test: as above
[10] = substrate: CC1=C(CCC(=O)NCCCCNCCCNC(=O)CCC2=C(C)C(=O)c3ccccc3C2=O)C(=O)c2ccccc2C1=O; test: as above
[11] = substrate: CC1=C(CCCCCC(=O)NCCCNCCCNC(=O)CCCCCC2=C(C)C(=O)c3cccc(O)c3C2=O)C(=O)c2c(O)cccc2C1=O; test: as above
[12] = substrate: CC1=C(CCC(=O)NCCCN2CCN(CCCNC(=O)CCC3=C(C)C(=O)c4ccccc4C3=O)CC2)C(=O)c2ccccc2C1=O; test: as above
[13] = substrate: CC1=C(CCCC(=O)NCCCN2CCN(CCCNC(=O)CCCC3=C(C)C(=O)c4ccccc4C3=O)CC2)C(=O)c2ccccc2C1=O; test: as above
[14] = substrate: CC1=C(CCCCC(=O)NCCCNCCCNC(=O)CCCCC2=C(C)C(=O)c3ccccc3C2=O)C(=O)c2ccccc2C1=O; test: as above
[15] = substrate: CC1=C(CCCCC(=O)NCCCCNCCCNC(=O)CCCCC2=C(C)C(=O)c3ccccc3C2=O)C(=O)c2ccccc2C1=O; test: as above
[16] = substrate: CC1=C(CCCCCC(=O)NCCCN2CCN(CCCNC(=O)CCCCCC3=C(C)C(=O)c4ccccc4C3=O)CC2)C(=O)c2ccccc2C1=O; test: as above
[17] = substrate: CC1=C(CCCC(=O)NCCCCNCCCNC(=O)CCCC2=C(C)C(=O)c3cccc(O)c3C2=O)C(=O)c2c(O)cccc2C1=O; test: as above
[18] = substrate: CC1=CC(=O)c2ccccc2C1=O; test: as above
[19] = substrate: CC1=C(CCCCCC(=O)NCCCCNCCCNC(=O)CCCCCC2=C(C)C(=O)c3cccc(O)c3C2=O)C(=O)c2c(O)cccc2C1=O; test: as above
[20] = substrate: CC1=C(CCCCCC(=O)NCCCNCCCNC(=O)CCCCCC2=C(C)C(=O)c3ccccc3C2=O)C(=O)c2ccccc2C1=O; test: (§1) Vmax is the maximum velocity of the TcTR (Trypanosoma cruzi trypanothione reductase) catalyzed NADH oxidation.
[21] = substrate: CC1=C(CCCCC(=O)NCCCN2CCN(CCCNC(=O)CCCCC3=C(C)C(=O)c4cccc(O)c4C3=O)CC2)C(=O)c2c(O)cccc2C1=O; test: as §1

B1: Trypanothione reductase (Trypanosoma cruzi), P28593 (protein)
chain: MMSKIFDLVVIGAGSGGLEAAWNAATLYKKRVAVIDVQMVHGPPFFSALGGTCVNVGCVPKKLMVTGAQYMEHLRESAGFGWEFDRTTLRAEWKKLIAVKDEAVLNINKSYEEMFRDTEGLEFFLGWGSLESKNVVNVRESADPASAVKERLETENILLASGSWPHMPNIPGIEHCISSNEAFYLPEPPRRVLTVGGGFISVEFAGIFNAYKPKDGQVTLCYRGEMILRGFDHTLREELTKQLTANGIQILTKENPAKVELNADGSKSVTFESGKKMDFDLVMMAIGRSPRTKDLQLQNAGVMIKNGGVQVDEYSRTNVSNIYAIGDVTNRVMLTPVAINEAAALVDTVFGTNPRKTDHTRVASAVFSIPPIGTCGLIEEVASKRYEVVAVYLSSFTPLMHNISGSKYKTFVAKIITNHSDGTVLGVHLLGDNAPEIIQGVGICLKLNAKISDFYNTIGVHPTSAEELCSMRTPSYYYVKGEKMEKPSEASL
[1]
  Vmax: 1.61 µM/min/mg
[2]
  Vmax: 1.3 µmol/min/mg
[3]
  Vmax: 3.11 µM/min/mg
[4]
  Vmax: 2.16 µM/min/mg
[5]
  Vmax: 0.31 µM/min/mg
[6]
  Vmax: 12.4 µM/min/mg
[7]
  Vmax: 1.61 µM/min/mg
[8]
  Vmax: 1.2 µM/min/mg
[9]
  Vmax: 4.29 µM/min/mg
[10]
  Vmax: 1.83 µM/min/mg
[11]
  Vmax: 4.87 µM/min/mg
[12]
  Vmax: 0.74 µM/min/mg
[13]
  Vmax: 0.6 µM/min/mg
[14]
  Vmax: 0.34 µM/min/mg
[15]
  Vmax: 1.11 µM/min/mg
[16]
  Vmax: 0.47 µM/min/mg
[17]
  Vmax: 4 µM/min/mg
[18]
  Vmax: 0.26 µM/min/mg
[19]
  Vmax: 5.91 µM/min/mg
[20]
  Vmax: 0.09 µM/min/mg
[21]
  Vmax: 5.13 µM/min/mg
